This passage reports IC50 and percent displacement of 125I Cry1Be results from patent US20120331590A1.

For experiment [1], the target named is BBMV's from FAW (brush border membrane vesicle proteins of Spodoptera frugiperda larval midgut). The experiment can be described thus: heterologous competition: unlabeled Cry1Be against 0.5 nM 125I Cry1Da on FAW BBMV's (the sites that Cry1Da binds, not Cry1Be's own sites).
Experiment [2] shares this target. As to the kind of experiment: homologous competition: unlabeled Cry1Be displacing 0.5 nM 125I Cry1Be from FAW BBMV's.
The target is the same in experiment [3]. The experiment can be described thus: heterologous competition: 1,000 nM unlabeled Cry1Da against 0.5 nM 125I Cry1Be on FAW BBMV's (the sites that Cry1Be binds).
For experiment [4] the target is unchanged. The experiment can be described thus: homologous competition: unlabeled Cry1Da displacing 0.5 nM 125I Cry1Da from FAW BBMV's.

Consider “Cry1Be (unlabeled, truncated Cry toxin) (from UniProt O85805 35-641) (ligand)”, for which the results for the IC50 in experiment [1] and in experiment [2] were above 1000 nM and 2 nM, respectively.
Take “Cry1Da (unlabeled, truncated Cry toxin) (from UniProt P19415 28-594) (ligand)”: the percent displacement of 125I Cry1Be in experiment [3] is below 50%. In addition, the IC50 (in general, the concentration that inhibits the measured activity by half) in experiment [4] stood at 1.5 nM.
